Read-outs that look alike come from different tables or passages of the source.
Tests used:
[1] = molecular target: T1, COVID-19 S.P. RBD (Cat. #40592-V08B, SB) (SARS-CoV-2, UniProt P0DTC2 319-541)
[2] = molecular target: T1, COVID-19 S.P. RBD (Cat. #40592-V08B, SB); remark: listed apart in the source
[3] = molecular target: SARS-CoV-2 S protein (wildtype) (SARS-CoV-2, UniProt P0DTC2 14-1273); experiment: cell-based or functional assay
[4] = molecular target: RBD-Fc (SARS-CoV-2 S protein amino acids 319-541 with human IgG1 Fc) (SARS-CoV-2; human, UniProt P0DTC2 319-541)

B1: Fc tagged nanobody VHH80 (Fc fusion)
chain: EVQLVESGGGLVQPGGSLRLSCAASGFISNFNLMGWFRQAPGKGRELVATINSFDDITYYPDSVEGRFTISRDNAKRMVYLQMNSLRAEDTAVYYCAAEVRSSLDYALWTSRRSAFSYWGQGTQVTVSSGSGGGGSGGGGS
- Kd [1]: 4.27 nM

B2: Fc tagged nanobody VHH35 (Fc fusion)
chain: EVQLVESGGGLVQPGGSLRLSCAASGSIYSFNFMGWFRQAPGKGRELVATINSFDDITYYPDSVEGRFTISRDNAKRMVYLQMNSLRAEDTAVYYCAVLGERTGISYGSAFDYWGQGTQVTVSSGSGGGGSGGGGS
- Kd [2]: 0.535 nM

B3: Fc tagged nanobody VHH79 (Fc fusion)
chain: EVQLVESGGGLVQPGGSLRLSCAASGFTSRNYFMGWFRQAPGKGRELVATINSLSSITYYPDSVEGRFTISRDNAKRMVYLQMNSLRAEDTAVYYCAVYTPTTGPGEGSYTPWHDYWGQGTQVTVSSGSGGGGSGGGGS
- Kd [1]: 3.44 nM

B4: Fc tagged nanobody VHH34 (Fc fusion)
chain: EVQLVESGGGLVQPGGSLRLSCAASGFIYSFNIMGWFRQAPGKGRELVASINWFSDITYYPDSVEGRFTISRDNAKRMVYLQMNSLRAEDTAVYYCAAYLLRGDDRYYATYSYWGQGTQVTVSSGSGGGGSGGGGS
- Kd [1]: 2.79 nM

B5: Fc tagged nanobody VHH82 (Fc fusion)
chain: EVQLVESGGGLVQPGGSLRLSCAASGFIYSFNIMGWFRQAPGKGRELVASISSYDDITYYPDSVEGRFTISRDNAKRMVYLQMNSLRAEDTAVYYCAAYLLRGDDRYYATYSYWGQGTQVTVSSGSGGGGSGGGGS
- Kd [1]: 2.29 nM

B6: Fc tagged nanobody VHH60 (Fc fusion)
chain: EVQLVESGGGLVQPGGSLRLSCAASGRTFRVNLMGWFRQAPGKGRELVASINGFDDITYYPDSVEGRFTISRDNAKRMVYLQMNSLRAEDTAVYYCAAYDSDYDGRLFNYWGQGTQVTVSSGSGGGGSGGGGS
- IC50, authentic SARS-CoV-2 neutralization on Vero-E6 cells (viral RNA by RT-PCR) [3]: 1.53 nM
- IC50, pseudovirus neutralization (luciferase activity in Caco-2 cells) [3]: 7.63 nM
- Kd [1]: 2.56 nM
- EC50 (read off the curve) [4]: ~0.4 nM

B7: Fc tagged nanobody VHH43 (Fc fusion)
chain: EVQLVESGGGLVQPGGSLRLSCAASGFISDADIMGWFRQAPGKGRELVASINSYDSITYYPDSVEGRFTISRDNAKRMVYLQMNSLRAEDTAVYYCAVRVHSRDFSYWGQGTQVTVSSGSGGGGSGGGGS
- Kd [1]: 1.44 nM

Source: patent US20240158477A1 (BIODURO JIANGSU, published 2024)
